# Publication PMC3247736
# System: IgM (human)
# Assay: QCM
# Conditions: 500 mg/L IgM vs 100 ug/L IgE; 5'-biotin; 8.1 mM Na2HPO4, 1.1 mM KH2PO4, 1 mM MgCl2, 2.7 mM KCl, 138 mM NaCl, pH 7.4, 37 C; BSA-blocked avidin-coated gold crystal
sequence,measurement,value
GGGGCACGTTTATCCGTCCCTCCTAGTGGCGTGCCCC [D17.4 anti-IgE aptamer],binding signal (% of IgE response),< 5
